Results: patent publication US20130028895A1, “EXOSOME INHIBITING AGENTS AND USES THEREOF” (priority 2011, published 2013)

Legend:
[1] = system: OCI-Ly1 lymphoma cells; experiment: Inhibition of exosome shedding by inhibitors (AChE activity, flotillin-2 Western blot); assay type: cell-based, human; conditions: non-toxic dose ranges, 24 h
Protocol: (§1) […] lymphoma cells were exposed to inhibitors of exosome synthesis or release at non-toxic dose ranges. Exosomes were harvested after a 24 h incubation period, and yields were measured by AChE activity (a) and detection of flotillin-2 by Western Blot (b). […] Significant differences to controls without inhibitors (one-way ANOVA with Dunn's post test) are marked with asterices, equivalent results were obtained for the cell lines Balm-3 and Su-DHL-4 (FIG. 10).
5×10^7 lymphoma cells were exposed to inhibitors of exosome synthesis or release at non-toxic dose ranges. Exosomes were harvested after a 24 h incubation period, and yields were measured by AChE activity. Significant differences to controls without inhibitors (one-way ANOVA) are marked with asterices.
(§2) Exosomes were prepared by differential centrifugation according to standard protocols (modified according to Valadi, H. et al. Nat. Cell Biol. 9, 654-659 (2007)). […] Exosomes were quantified by measuring whole protein according to standard protocols (BioRad-DC-Protein-Assay), Western blot detecting flotillin-2 in comparison with whole cells or control exosome preparations, and acetyl-cholin-esterase (AChE) activity as previously described (Savina, A., Fader, C. M., Damiani, M. T., & Colombo, M. I. Traffic. 6, 131-143 (2005)).

[2] = system: lymphoma cells; experiment: CDC susceptibility: inhibitors plus rituximab with 10% active human complement; assay type: cell-based; conditions: concomitant incubation with rituximab
Protocol: as §1
(§3) After 24 hours at 37° C., cell viability was determined in triplicates by […] staining as described before. The effect on viability was expressed as the ratio of values from treated versus untreated samples, i.e. specific viability=100× absorbance with antibody treatment/absorbance of untreated control. To detect complement decomposition of C3 in supernatant of exosome coupled to beads, monoclonal antibody 13/15 was coated onto 96-well Medisorp plates (NUNC, Medisorp, Thermo Fisher Scientific) blocked, and washed. Subsequently, appropriately diluted supernatant of exosome:bead complex samples were added to the plate for 60 minutes, washed, and incubated with rabbit anti-C3d for 60 min. After washing, finally anti-rabbit Fc conjugated to horseradish peroxidase (anti-rFc-HRP) was added for 60 minutes, before a further washing and addition of TMB substrate solution. […]

[3] = molecular target: T1, exosomal CD20 (Homo sapiens, UniProt P11836); experiment: Binding of therapeutic anti-CD20 antibodies to lymphoma exosomes (immunogold, Western blot, FACS of exosome-labelled beads); conditions: purified exosome-labelled beads, Su-DHL-4
T1 construct: endogenous in cells; host or cells: exosomes purified from culture supernatants of Balm-3 and Su-DHL-4 lymphoma cells
T1 sequence (P11836 1-297): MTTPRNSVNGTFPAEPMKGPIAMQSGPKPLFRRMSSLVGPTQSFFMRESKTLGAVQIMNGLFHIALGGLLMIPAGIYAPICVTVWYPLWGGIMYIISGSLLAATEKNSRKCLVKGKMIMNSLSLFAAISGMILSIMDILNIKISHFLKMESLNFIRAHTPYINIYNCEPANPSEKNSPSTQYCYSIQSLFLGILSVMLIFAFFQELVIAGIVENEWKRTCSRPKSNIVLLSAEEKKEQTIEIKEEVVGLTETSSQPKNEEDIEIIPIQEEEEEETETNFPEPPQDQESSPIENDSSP
Protocol: Cells or exosomes coupled to beads were stained with fluorescence-labelled monoclonal antibodies, and analyzed by flow cytometry.
FACS analysis of exosomal surface proteins was carried out after exosomes were coupled to latex beads as previously described (Thery, C., Zitvogel, L., & Amigorena, S, Nat. Rev. Immunol. 2, 569-579 (2002)). Exosomes (40 μg protein) were incubated in 30 μl PBS with 4 μm aldehyde/sulfate latex beads (3 μl of a 4% w/v suspension, Invitrogen) for 15 min., and again for 2 h after addition of 500 μl PBS at room temperature (RT) under constant agitation. The reaction was stopped by addition of 100 μl 1M glycine for 30 min. at RT with gentle agitation, followed by three washes in PBS/0.5% w/v bovine serum albumin (BSA). Antibody staining followed the protocols for antibody staining of cells in suspension.
Detection of membrane-bound fluorescence were performed using standard protocols for flow cytometry. 1×10^5 cells per condition were washed once with PBS and thereafter incubated for 30 min at room temperature and protected from light with either primary antibody or isotype control (both 1:50).

[4] = system: ABCA3; experiment: Exosome release after silencing of ABCA3 by lentiviral shRNA; assay type: cell-based, human
Protocol: (§4) The effects were measured after incubation for 48 h by AChE activity (b, cell line Balm-3, significance tested by one-way ANOVA), whole exosomal protein (c, significance tested by Student's two-sample t-test), as well as flotillin-2 detection from exosome preparations in the cell culture supernatant (d). Addressing ABCA3 overexpression, 4×10^7 cells of HEK293A, the stable ABCA3 overexpressing cell line HEK293A-ABCA3, as well as K562 cells were incubated for 17 h in 36 ml of exosome-free cell culture medium, and exosome yields measured as total exosomal protein.
As small molecules were used at the concentrations indicated: mTOR inhibitor rapamycin, COX-2 inhibitor indometacin, cholesterol synthesis inhibitor U18666A (all from Sigma). As fluorescent dyes CalceinAM and PKH26 were applied (both from Molecular Probes). […]
as §2

[5] = system: lymphoma cell lines; experiment: CDC susceptibility after RNAi silencing of ABCA3; assay type: cell-based, human; conditions: rituximab in the presence of complement, vs lv GFP control
Protocol: as §4
as §3, with “min.” for “min. After washing, finally anti-rabbit Fc conjugated to horseradish peroxidase (anti-rFc-HRP) was added for 60 minutes, before a further washing and addition of TMB substrate solution.”

Molecule: CCN(CC)CCO[C@H]1CC[C@@]2(C)C(=CC[C@@H]3[C@@H]2CC[C@]2(C)C(=O)CC[C@@H]32)C1 [U18666A]
- exosome shedding / release [1]: Inhibition of Exosome Shedding
- CDC susceptibility / cytolytic activity of rituximab [2]: Enhanced CDC Susceptibility

Molecule: GA101: therapeutic anti-CD20 monoclonal antibody (type II, Roche)
- exosomal binding by FACS [3]: Exosomal binding

B1: anti-ABCA3 shRNA: lentiviral shRNA silencing ABCA3, sequences SEQ ID NO: 1 and SEQ ID NO: 2 cloned into pLKO.1 (nucleic acid)
chain 1: CCGGGCCCAGCTCATTGGGAAATTTCTCGAGAAATTTCCCAATGAGCTGGGCTTTTTG
chain 2: AATTCAAAAAAAATTTCCCAATGAGCTGGGCCTCGAGGCCCAGCTCATTGGGAAATTT
modifications: the letters are possibly those of the target site
- exosome release vs mock transfected controls ([4]; 48 h, AChE activity, whole exosomal protein, flotillin-2, Balm-3): decreased exosome release
- reduction of exosome release ([4]; Balm-3, Su-DHL-4 and OCI-Ly1): approximately 50%
- susceptibility to CDC ([5]; listed as lentiviral RNAi): significantly increased the susceptibility of the lymphoma cells to CDC-mediated lysis
- susceptibility to CDC ([5]; listed as shRNA against ABCA3): increased susceptibility of lymphoma cell lines to CDC
